The experiment addresses mitochondrial RNA polymerase (POLRMT), residues 42-1230 (human, UniProt O00411 42-1230). Put plainly: ITC. In general terms: In ITC the heat of successive injections is recorded.

Sequence of mitochondrial RNA polymerase (POLRMT), residues 42-1230 (O00411 42-1230): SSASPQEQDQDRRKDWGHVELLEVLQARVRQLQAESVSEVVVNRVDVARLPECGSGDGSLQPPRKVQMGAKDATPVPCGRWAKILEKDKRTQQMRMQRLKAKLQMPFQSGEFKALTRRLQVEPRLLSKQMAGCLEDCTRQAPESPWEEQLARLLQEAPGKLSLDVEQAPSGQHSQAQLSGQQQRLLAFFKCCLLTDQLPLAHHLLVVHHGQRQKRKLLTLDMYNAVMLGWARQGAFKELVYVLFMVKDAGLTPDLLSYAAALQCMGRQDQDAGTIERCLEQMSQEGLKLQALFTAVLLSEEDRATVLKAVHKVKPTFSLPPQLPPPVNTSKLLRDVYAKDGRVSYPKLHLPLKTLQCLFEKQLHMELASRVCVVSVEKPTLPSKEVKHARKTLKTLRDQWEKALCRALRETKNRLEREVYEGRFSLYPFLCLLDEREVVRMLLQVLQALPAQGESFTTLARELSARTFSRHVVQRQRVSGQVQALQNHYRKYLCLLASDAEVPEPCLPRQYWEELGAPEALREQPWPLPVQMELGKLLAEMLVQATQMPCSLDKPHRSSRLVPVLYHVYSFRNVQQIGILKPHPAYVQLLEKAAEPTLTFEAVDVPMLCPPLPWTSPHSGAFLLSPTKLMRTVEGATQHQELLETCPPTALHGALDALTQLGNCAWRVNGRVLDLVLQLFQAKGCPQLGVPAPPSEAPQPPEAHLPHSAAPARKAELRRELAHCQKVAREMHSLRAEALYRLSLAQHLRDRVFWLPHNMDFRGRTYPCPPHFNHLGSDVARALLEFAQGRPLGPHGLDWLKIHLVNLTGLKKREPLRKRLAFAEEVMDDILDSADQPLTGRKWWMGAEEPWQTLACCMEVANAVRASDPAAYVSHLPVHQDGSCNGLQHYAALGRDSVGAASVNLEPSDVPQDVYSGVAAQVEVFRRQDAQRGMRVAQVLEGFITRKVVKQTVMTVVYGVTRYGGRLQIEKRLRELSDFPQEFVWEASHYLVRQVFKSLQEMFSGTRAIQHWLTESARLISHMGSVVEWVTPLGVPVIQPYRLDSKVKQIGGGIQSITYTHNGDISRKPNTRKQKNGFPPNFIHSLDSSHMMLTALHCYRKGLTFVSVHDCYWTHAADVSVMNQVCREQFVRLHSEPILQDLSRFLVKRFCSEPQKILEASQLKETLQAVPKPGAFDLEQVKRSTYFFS

B1: TFAM, residues 43-246 (natural protein)
chain: SSVLASCPKKPVSSYLRFSKEQLPIFKAQNPDAKTTELIRRIAQRWRELPDSKKKIYQDAYRAEWQVYKEEISRFKEQLTPSQIMSLEKEIMDKHLKRKAMTKKKELTLLGKPKRPRSAYNVYVAERFQEAKGDSPQEKLKTVKENWKNLSDSEKELYIQHAKEDETRYHNEMKSWEEQMIEVGRKDLLRRTIKKQRKYGAEEC
In general, Kd refers to the concentration at which binding is half-saturated. Molecule B1 yielded a Kd of 4.6 µM and a dH of 46.4 kJ/mol.

The values are drawn from paper PMC3973321 (Nucleic Acids Research, 2014).
